Reference: publication PMC11594918, “Kinetic Features of Degradation of R-Loops by RNase H1 from Escherichia coli”

What was measured:
RNase H1 D10N (RH1 D10N) [1] = target: T1, RNase H1 D10N (RH1 D10N) (Escherichia coli, UniProt P0A7Y4 1-155, D10N); assay: MST; 10 mM Mg2+; saturation not reached, low limit estimate; MST: 40 mM Tris-HCl pH 7.9, 40 mM KCl, 10 mM MgCl2, 25 C; R-loop 0.5 uM, RH1 D10N 0.05-30 uM (RNAP MST conditions not stated separately); conditions: protein: recombinant, tags: N-terminal 6xHis, label: 5'-FAM on RNA, three strands 1:1:1, bubble
T1 sequence: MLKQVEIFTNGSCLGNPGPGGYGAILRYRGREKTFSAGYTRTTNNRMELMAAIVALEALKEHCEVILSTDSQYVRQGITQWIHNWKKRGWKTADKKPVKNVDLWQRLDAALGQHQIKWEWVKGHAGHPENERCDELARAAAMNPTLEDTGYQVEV

RNA polymerase (RNAP) = RNA polymerase (RNAP) (Escherichia coli, UniProt P0A7Z4;P0A8V2;P0A8T7;P0A800 1-329;1-1342;1-1407;2-91); assay: MST; MST: 40 mM Tris-HCl pH 7.9, 40 mM KCl, 10 mM MgCl2, 25 C; R-loop 0.5 uM, RH1 D10N 0.05-30 uM (RNAP MST conditions not stated separately); conditions: protein: recombinant; tags: N-terminal His (pVS10 plasmid); chain copies: 2;1;1;1; label: 5'-FAM on RNA; three strands 1:1:1 (nontemplate DNA, template DNA, RNA); bubble; 11 bp hybrid
RNase H1 D10N (RH1 D10N) [2] = target: T1, RNase H1 D10N (RH1 D10N); assay: MST; 10 mM Mg2+; MST: 40 mM Tris-HCl pH 7.9, 40 mM KCl, 10 mM MgCl2, 25 C; R-loop 0.5 uM, RH1 D10N 0.05-30 uM (RNAP MST conditions not stated separately); conditions: protein: recombinant, tags: N-terminal 6xHis, label: 5'-FAM on RNA, bubble
[3] = three strands 1:1:1, 10-11 nt hybrid

Chain of RNA polymerase (RNAP) (P0A7Z4 whole entry, chain 1 of 4): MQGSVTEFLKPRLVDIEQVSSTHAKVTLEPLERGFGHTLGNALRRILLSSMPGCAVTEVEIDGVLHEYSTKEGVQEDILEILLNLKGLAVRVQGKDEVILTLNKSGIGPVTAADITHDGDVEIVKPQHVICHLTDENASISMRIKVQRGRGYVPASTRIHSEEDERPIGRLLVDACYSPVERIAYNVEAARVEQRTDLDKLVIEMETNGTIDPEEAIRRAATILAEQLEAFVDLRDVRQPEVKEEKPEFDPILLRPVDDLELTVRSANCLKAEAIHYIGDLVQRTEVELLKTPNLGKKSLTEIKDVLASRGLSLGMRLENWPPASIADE
Chain of RNA polymerase (RNAP) (P0A8V2 whole entry, chain 2 of 4): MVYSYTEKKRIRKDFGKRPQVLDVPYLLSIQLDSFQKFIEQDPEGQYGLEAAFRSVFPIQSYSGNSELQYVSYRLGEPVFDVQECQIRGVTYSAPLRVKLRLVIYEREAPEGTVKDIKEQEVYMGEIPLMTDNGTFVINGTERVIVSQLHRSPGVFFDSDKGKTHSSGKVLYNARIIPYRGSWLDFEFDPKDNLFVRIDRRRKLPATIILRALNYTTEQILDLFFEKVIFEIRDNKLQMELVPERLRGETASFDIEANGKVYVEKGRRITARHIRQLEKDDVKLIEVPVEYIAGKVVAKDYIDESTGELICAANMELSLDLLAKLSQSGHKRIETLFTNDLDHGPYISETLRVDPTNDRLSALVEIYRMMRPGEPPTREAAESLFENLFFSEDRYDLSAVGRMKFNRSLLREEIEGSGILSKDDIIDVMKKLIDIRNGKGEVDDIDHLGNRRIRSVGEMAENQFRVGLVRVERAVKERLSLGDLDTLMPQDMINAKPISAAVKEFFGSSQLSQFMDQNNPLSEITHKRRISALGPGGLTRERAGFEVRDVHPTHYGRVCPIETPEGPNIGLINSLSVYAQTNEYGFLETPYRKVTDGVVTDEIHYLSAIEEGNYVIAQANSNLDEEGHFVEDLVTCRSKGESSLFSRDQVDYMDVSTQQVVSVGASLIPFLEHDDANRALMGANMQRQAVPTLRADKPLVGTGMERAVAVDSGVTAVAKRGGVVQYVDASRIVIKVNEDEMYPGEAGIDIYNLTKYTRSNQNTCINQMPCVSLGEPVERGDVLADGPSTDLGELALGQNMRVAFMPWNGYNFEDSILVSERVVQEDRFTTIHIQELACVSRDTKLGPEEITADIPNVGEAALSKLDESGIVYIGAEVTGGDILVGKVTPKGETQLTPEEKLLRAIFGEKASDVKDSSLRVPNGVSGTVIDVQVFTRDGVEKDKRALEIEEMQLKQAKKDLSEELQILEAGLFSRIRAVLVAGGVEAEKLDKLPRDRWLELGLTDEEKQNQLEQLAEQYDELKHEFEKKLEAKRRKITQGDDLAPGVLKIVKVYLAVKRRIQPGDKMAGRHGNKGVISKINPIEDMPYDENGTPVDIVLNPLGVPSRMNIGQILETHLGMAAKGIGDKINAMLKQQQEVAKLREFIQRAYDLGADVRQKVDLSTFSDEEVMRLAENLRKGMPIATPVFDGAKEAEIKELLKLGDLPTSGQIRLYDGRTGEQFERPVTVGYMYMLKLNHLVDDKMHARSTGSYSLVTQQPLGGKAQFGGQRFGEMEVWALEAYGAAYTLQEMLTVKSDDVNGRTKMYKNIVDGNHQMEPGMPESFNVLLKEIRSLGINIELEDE
Chain of RNA polymerase (RNAP) (P0A8T7 whole entry, chain 3 of 4): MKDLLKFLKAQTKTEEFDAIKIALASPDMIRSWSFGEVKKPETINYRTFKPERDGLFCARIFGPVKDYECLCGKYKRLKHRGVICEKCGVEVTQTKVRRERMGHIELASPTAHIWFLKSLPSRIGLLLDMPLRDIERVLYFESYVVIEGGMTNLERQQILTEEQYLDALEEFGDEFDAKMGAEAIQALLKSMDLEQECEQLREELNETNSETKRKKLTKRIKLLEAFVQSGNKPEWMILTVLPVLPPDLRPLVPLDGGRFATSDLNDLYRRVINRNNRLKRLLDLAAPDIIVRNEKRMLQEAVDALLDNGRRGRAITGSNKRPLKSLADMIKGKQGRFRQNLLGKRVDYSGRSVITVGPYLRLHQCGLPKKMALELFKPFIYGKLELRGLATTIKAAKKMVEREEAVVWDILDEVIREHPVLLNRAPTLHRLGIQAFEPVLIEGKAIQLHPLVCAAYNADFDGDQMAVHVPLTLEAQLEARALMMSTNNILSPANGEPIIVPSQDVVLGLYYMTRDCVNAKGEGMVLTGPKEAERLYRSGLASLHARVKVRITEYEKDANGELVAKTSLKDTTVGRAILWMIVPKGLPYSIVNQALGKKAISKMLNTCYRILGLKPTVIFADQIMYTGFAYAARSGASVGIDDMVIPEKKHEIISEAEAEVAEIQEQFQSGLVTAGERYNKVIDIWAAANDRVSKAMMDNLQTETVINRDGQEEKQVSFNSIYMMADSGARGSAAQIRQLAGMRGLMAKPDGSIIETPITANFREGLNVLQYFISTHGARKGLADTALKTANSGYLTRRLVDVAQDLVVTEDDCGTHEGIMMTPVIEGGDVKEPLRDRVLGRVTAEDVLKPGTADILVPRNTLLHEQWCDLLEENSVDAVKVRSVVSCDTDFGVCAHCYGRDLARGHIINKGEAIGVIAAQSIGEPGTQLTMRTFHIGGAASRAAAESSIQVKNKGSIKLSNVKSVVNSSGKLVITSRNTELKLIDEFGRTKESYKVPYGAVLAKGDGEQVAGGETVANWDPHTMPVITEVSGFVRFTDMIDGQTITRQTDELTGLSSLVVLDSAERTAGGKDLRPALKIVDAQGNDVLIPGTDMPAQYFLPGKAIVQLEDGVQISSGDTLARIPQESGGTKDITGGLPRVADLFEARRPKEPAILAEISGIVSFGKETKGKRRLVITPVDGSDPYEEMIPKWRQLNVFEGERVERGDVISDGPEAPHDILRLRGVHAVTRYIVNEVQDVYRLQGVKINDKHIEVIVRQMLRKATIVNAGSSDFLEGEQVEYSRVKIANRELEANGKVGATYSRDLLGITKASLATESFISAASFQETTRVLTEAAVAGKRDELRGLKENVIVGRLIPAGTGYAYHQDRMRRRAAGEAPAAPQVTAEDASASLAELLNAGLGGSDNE
Chain of RNA polymerase (RNAP) (P0A800 2-91, chain 4 of 4): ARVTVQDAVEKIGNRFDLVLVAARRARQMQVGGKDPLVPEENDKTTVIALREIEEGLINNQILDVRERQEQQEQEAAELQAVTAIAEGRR

B1: R-loop 8 (mixed)
DNA 1: ACTTGTAGCGATCTAAGGTCTTTTTTTTTTTTTTTTTTTTTTTTTTTTTGGCTCATTGCAGTAGAGTAGC
DNA 2: GCTACTCTACTGCAATGAGTGCTTGATGGAGGGATGTGTAGTGGAATAGATACCTTAGATCGCTACAAGT
RNA: CUCACAUCUAUUCCACUACACAUCCCUCCAUCAAGCA
RNase H1 D10N (RH1 D10N) [1]; extended hybrid
  Kd: ~9.3 µM

B2: R-loop 9 (mixed)
DNA 1: ACTTGTAGCGATCTAAGGTCTTTTGGGTGGGTGGGTGGGTTTTTTTTTTGGCTCATTGCAGTAGAGTAGC
DNA 2: GCTACTCTACTGCAATGAGTGCTTGATGGAGGGATGTGTAGTGGAATAGATACCTTAGATCGCTACAAGT
RNA: CUCACAUCUAUUCCACUACACAUCCCUCCAUCAAGCA
RNase H1 D10N (RH1 D10N) [1]; extended hybrid, G4 in nontemplate DNA (annealed in 140 mM KCl)
  Kd: ~5.1 µM

B3: R-loop 6 (mixed)
DNA 1: ACTTGTAGCGATCTAAGGTCTTTTTTTTTTTTTTGGCTCATTGCAGTAGAGTAGC
DNA 2: GCTACTCTACTGCAATGAGCTGCTCTCTGGACTCGAACCTTAGATCGCTACAAGT
RNA: CUCACAUCGAGUCCAGAGAGCA
RNase H1 D10N (RH1 D10N) [1]; 16 nt hybrid
  Kd: ~9.7 µM

B4: R-loop 7 (mixed)
DNA 1: ACTTGTAGCGATCTAAGGTCTTTTTTTTTTTTTTTTTTTGGCTCATTGCAGTAGAGTAGC
DNA 2: GCTACTCTACTGCAATGAGCTGGGATGTGTAGTGGAATAGAACCTTAGATCGCTACAAGT
RNA: CUCACAUCUAUUCCACUACACAUCCCA
RNase H1 D10N (RH1 D10N) [1]; extended hybrid
  Kd: ~6.7 µM

B5: R-loop 1 (mixed)
DNA 1: ACTTGTAGCGATCTAAGGTCTTTTTTTTTGGCTCATTGCAGTAGAGTAGC
DNA 2: GCTACTCTACTGCAATGAGCTGCTCTCTGGAACCTTAGATCGCTACAAGT
RNA: CUCACAUCCAGAGAGCA
RNA polymerase (RNAP)
  Kd: 0.3 ± 0.1 µM
RNase H1 D10N (RH1 D10N) [2]; three strands 1:1:1 (nontemplate DNA, template DNA, RNA), 11 bp hybrid
  Kd: 1.2 ± 0.4 µM

B6: R-loop 2 (mixed)
DNA 1: ACTTGTAGCGATCTAAGGTCTTTTTTTTTAGCTCATTGCAGTAGAGTAGC
DNA 2: GCTACTCTACTGCAATGAGCTGCTCTCTGGAACCTTAGATCGCTACAAGT
RNA: CUCACAUCCAGAGAGCA
RNase H1 D10N (RH1 D10N) [2]; [3]
  Kd: 1.1 ± 0.4 µM

B7: R-loop 3 (mixed)
DNA 1: ACTTGTAGCGATCTAAGGTCTTTTTTTTTGCCTCATTGCAGTAGAGTAGC
DNA 2: GCTACTCTACTGCAATGAGCTGCTCTCTGGAACCTTAGATCGCTACAAGT
RNA: CUCACAUCCAGAGAGCA
RNase H1 D10N (RH1 D10N) [2]; [3]
  Kd: 1.5 ± 0.4 µM
